Values belong to the substance of their own block, whether it stands above or below them.
Columns and labels:
[1] = biological target: dynein (cytoplasmic dynein-1, endogenous, detected by its intermediate chain DIC) (human (endogenous in HeLa)) (UniProt Q13409)
[2] = biological target: GST-RanBP2 BBD phosphorylated by CDK1/cyclin B (human) (UniProt P49792); experiment: pull-down; GST-RanBP2 BBD on GSH agarose beads, untreated or pre-phosphorylated by CDK1/cyclin B1, incubated 90 min at RT with purified TwinStrep-BICD2 in Binding Buffer (50 mM Tris pH 7.4, 125 mM NaCl, 5 mM EDTA, 0.1% NP40); blot with anti-BICD2
[3] = biological target: PLK1 PBD, 354-603 (Methods: 345-603) (UniProt P53350); experiment: GST-PBD pull-down from cell extracts; details: reference: wild type; sites T319,S320,T321
[4] = biological target: RanBP2/NUP358 BICD2 Binding Domain (BBD), 2147-2287 (UniProt P49792); experiment: GST pull-down with purified proteins; details: reference: wild type; sites S102
PLK1 = PLK1 (UniProt P53350); experiment: anti-GFP IP, PLK1 blot; details: reference: wild type, sites T319,S320,T321

Sequence of dynein (cytoplasmic dynein-1, endogenous, detected by its intermediate chain DIC) (human (endogenous in HeLa)) (Q13409 whole entry, looked up): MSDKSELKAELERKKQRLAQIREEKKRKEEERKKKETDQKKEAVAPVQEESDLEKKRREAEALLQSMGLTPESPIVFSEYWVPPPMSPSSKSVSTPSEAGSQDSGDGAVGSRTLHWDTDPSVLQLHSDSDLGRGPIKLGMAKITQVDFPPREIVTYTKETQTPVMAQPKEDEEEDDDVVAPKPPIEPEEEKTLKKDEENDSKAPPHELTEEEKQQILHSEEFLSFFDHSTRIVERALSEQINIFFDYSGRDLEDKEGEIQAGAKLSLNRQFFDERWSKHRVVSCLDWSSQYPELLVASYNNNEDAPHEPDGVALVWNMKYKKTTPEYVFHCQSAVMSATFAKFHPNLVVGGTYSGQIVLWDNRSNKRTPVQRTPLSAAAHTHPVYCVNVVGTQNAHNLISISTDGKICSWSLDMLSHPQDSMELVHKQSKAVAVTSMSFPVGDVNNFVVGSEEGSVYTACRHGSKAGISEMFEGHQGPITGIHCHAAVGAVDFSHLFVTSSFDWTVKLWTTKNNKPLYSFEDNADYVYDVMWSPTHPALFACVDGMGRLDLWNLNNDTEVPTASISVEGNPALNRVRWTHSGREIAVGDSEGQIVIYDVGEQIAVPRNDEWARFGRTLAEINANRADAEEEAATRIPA
Sequence of GST-RanBP2 BBD phosphorylated by CDK1/cyclin B (human) (P49792 2147-2287): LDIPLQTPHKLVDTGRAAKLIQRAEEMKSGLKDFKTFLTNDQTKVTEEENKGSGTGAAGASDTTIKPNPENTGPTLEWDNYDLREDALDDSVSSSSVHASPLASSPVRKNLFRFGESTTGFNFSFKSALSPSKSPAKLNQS

Substance: GFP-BICD2 wild type (from UniProt Q921C5 1-820) (natural protein)
percent of U2OS cells with clustered mitochondria, BICD2 form expressed as GFP-BICD2 WT-MTD [1]: 50%

Substance: GFP-BICD2 [1–575] (from UniProt Q921C5 1-575) (domain or fragment)
percent of U2OS cells with clustered mitochondria, BICD2 form expressed as GFP-BICD2 [1–575]-MTD [1]: 85%

Substance: GFP-BICD2 S102A (from UniProt Q921C5 1-820) (natural protein)
percent of U2OS cells with clustered mitochondria, BICD2 form expressed as GFP-BICD2 S102A-MTD [1]: 43%

Substance: GFP-BICD2 S102D (from UniProt Q921C5 1-820) (natural protein)
percent of U2OS cells with clustered mitochondria, BICD2 form expressed as GFP-BICD2 S102D-MTD [1]: 61%

Continued, values first:

fold binding against wild-type BICD2 on phosphorylated BBD [2]: 12 fold
fold binding against wild-type BICD2 on unmodified BBD [2]: 400 times
Substance: TwinStrep-BICD2 S102D (from UniProt Q921C5 1-820) (natural protein)

binding against the reference [3]: lost
Substance: BICD2 (mouse, recombinant) (from UniProt Q921C5) T319A/S320A/T321A

fold change [4]: 12
Substance: BICD2 (mouse, recombinant) (from UniProt Q921C5) S102D

binding against the reference (PLK1; exponentially growing cells): lost
Substance: BICD2 (mouse, recombinant) (from UniProt Q921C5) T319A/S320A/T321A, exponentially growing cells

binding against the reference (PLK1; mitotic cells): lost
Substance: BICD2 (mouse, recombinant) (from UniProt Q921C5) T319A/S320A/T321A, mitotic cells

Reference: PMC10140047
